Measured values: paper PMC8963248, “Natural Human Immunity Against Staphylococcal Protein A Relies on Effector Functions Triggered by IgG3” (Frontiers in Immunology, 2022)

B1: anti-SpA monoclonal antibody mAb-2 in IgG3 scaffold (antibody, V domains shown)
VH: QVQLVQSGAEVKKPGASVKVSCKASGYTFTRYYMHWVRQAPGQGLEWMGWINPPSGGTNYAQKFQGRVTMTRDTSTSTVYMELSSLRSEDTAVYYCARDPPMGQGMDVWGQGTLVTVSS
VL: EIVLTQSPATLSVSPGERATLSCRASQSISSYLNWYQQKPGQAPRLLIYAASSLQSGIPARFSGSGSGTEFTLTISSLQSEDFAVYYCQQSFVAPFTFGGGTKVEIK
notes: heavy variable region; human IgG3 scaffold (heavy constant region); light chain; IgG3; also called IgG3 mAb-2; source: Expi293, transient transfection, purified (protein G)
B2: anti-SpA monoclonal antibody mAb-1 in IgG3 scaffold (antibody, V domains shown)
VH: EVQLVESGGGLVQPGGSLRLSCAASGFTFSTYGMSWVRQAPGKGLEWVSSITGSGRSTFYADSVKGRFTISRDNSTNTLSLQMNSLRAEDTAVYYCARSPADIVTGYYPWWFDLWGQGTLVTVSS
VL: DIQMTQSPSSLSASIGDRVTITCRASQSINTYLNWYQQKPGKAPRLLIAGASSLQSGVPSRFSGSGSGTDFTLTISSLQPEDFATYYCQQANSFPLTFGQGTRLEIK
notes: heavy variable region; human IgG3 scaffold (heavy constant region); light chain; IgG3; also called IgG3 mAb-1; source: Expi293, transient transfection, purified (protein G)
B3: anti-SpA monoclonal antibody mAb-3 in IgG3 scaffold (antibody, V domains shown)
VH: QVQLVQSGAEVKKPGASVKVSCKASGYTFSHYYMHWVRQAPGQGLEWMGIINPRYGSTSYAQKFQGRVTMTRDTSTSTVYMELSSLRSEDTAVYYCARDGEVGARDLGWFDPWGQGTLVTVSS
VL: EIVLTQSPATLSVSPGERATLSCRASQSVSSNLAWYQQKPGQAPRLLIYGASTRATGIPARFSGSGSGTEFTLTISSLQSEDFAVYYCQQYTPLPWTFGGGTKVEIK
notes: heavy variable region; human IgG3 scaffold (heavy constant region); light chain; IgG3; also called IgG3 mAb-3; source: Expi293, transient transfection, purified (protein G)

Each binder was assayed against T1, SpA wild type (Staphylococcal protein A, recombinant) (Staphylococcus aureus NCTC 8325, UniProt P02976, biotinylated (only for the beads of the phagocytosis assays); chemically coupled by amines to MagPlex beads in the Luminex assays) (assay: Luminex bead displacement assay; SpAwt coupled to MagPlex beads, saturated with biotinylated human IgGs (8 µg/mL, 30 min, room temperature), washed, then incubated with serially diluted IgG3 mAbs 1-4 or IgG3 isotype control in PBS; remaining human IgGs revealed with streptavidin-PE). Conditions: both partners purified.
T1 construct: Staphylococcal protein A (SpA) of S. aureus strain NCTC 8325, locus tag SAOUHSC_00069; In the functional rows on bacteria the SpA is that on S. aureus USA300 lac, not this recombinant protein; also called SpAwt
T1 sequence (P02976 37-485): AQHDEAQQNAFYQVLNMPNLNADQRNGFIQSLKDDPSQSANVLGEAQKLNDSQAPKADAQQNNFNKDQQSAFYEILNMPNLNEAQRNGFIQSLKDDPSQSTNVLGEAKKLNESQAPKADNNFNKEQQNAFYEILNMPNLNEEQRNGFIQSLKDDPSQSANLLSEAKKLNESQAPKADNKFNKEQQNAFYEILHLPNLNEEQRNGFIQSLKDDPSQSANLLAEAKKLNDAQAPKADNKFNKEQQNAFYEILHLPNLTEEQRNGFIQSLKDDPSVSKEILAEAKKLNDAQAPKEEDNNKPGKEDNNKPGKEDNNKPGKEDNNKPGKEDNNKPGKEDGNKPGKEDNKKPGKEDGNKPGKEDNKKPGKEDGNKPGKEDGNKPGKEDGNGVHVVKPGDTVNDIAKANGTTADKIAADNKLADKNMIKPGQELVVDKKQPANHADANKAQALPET

Q: Does B1 bind?
A: Result: binds

Q: Does B2 bind?
A: Result: binds

Q: Does B3 bind?
A: Result: binds
